Molecular target: cardiac troponin T (TnT) (human, UniProt P45379 2-298)
Experiment: electrochemical aptasensor (DPV, ferro/ferricyanide); 0.05-5 ng/mL TnT; LOD 0.01 ng/mL; aptamer on gold; TnT binding at 37 C, ~30 min, working pH 7.4; aptamer immobilized from 10 mM phosphate, 5 mM NaCl, 2 mM KCl, 1 mM MgCl2, pH 7.4; DPV in 20 mM Tris-HCl, 0.5 M KCl, 0.5 M ferro/ferricyanide
Conditions: protein: commercial

B1: TnT aptamer (structured_DNA)
DNA: CGTGCAGTACGCCAACCTTTCTCATGCGCTGCCCCTCTTA
modifications: 5'-SH-(CH2)6 thiol
- binding result: binds
